The target of test [1] is T1, human LRP6 (hLRP6) protein (Cat. No. 1505-LR-025, R&D, USA) (human, UniProt O75581 20-1368, limits assumed).
T1 construct: Coated on the ELISA plate
T1 sequence (looked up): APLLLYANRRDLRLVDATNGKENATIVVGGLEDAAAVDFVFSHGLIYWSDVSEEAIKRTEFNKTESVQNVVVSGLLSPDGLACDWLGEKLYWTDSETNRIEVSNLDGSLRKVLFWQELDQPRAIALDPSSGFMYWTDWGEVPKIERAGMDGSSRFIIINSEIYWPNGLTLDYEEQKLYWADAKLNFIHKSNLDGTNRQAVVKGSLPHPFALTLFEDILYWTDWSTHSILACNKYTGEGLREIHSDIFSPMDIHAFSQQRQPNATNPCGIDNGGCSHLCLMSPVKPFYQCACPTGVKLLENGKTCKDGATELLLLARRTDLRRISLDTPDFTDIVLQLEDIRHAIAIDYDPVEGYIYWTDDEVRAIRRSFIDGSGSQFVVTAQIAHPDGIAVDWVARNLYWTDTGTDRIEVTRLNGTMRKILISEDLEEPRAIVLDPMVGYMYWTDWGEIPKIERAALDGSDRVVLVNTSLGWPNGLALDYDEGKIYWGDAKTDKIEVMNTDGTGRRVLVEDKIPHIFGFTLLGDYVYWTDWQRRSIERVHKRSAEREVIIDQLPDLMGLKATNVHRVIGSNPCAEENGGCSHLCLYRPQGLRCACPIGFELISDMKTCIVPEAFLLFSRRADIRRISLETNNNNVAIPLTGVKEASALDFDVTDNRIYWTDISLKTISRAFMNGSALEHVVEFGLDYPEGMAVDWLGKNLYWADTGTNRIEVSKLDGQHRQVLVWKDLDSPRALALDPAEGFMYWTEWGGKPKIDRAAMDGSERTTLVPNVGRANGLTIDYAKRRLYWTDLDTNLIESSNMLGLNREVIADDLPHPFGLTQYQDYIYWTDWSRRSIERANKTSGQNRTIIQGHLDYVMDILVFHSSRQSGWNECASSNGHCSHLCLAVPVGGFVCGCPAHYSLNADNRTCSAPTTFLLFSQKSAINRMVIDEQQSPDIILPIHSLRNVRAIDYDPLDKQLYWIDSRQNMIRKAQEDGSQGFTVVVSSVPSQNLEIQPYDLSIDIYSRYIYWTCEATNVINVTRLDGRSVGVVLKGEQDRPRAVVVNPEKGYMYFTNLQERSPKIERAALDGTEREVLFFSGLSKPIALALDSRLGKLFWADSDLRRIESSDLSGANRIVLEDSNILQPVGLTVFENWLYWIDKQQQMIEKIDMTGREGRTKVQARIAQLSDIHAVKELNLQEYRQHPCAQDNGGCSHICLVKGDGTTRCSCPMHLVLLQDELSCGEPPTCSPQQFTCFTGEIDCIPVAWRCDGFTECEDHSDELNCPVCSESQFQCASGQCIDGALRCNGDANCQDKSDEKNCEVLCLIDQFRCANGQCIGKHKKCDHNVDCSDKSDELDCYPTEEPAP
Briefly: ELISA, 100 ng hLRP6 coated, DKK2 protein diluted serially from 100 nM, KD calculated from absorbance at 490 nm. The procedure: (§1) Each purified DKK2 protein and 100 μl of 1% (w/v) skim milk/1×PBS were mixed to prepare 100 nM of DKK2 protein, and 100 nM of DKK2 protein was subjected to ¼ serial dilution. The diluted protein was applied to the prepared ELISA plate, and incubated at room temperature for about 2 hours. Thereafter, the plate was washed with 200 μl of PBST five times.
(§2) 2 μl of anti-Human Fc-HRP (Cat. No. 31413, Thermo, USA) antibody was mixed with 4 ml of PBS containing 1% (w/v) skim milk, and 200 μl of this mixture was added to each well of ELISA plate and incubated at room temperature for 1 hour. Thereafter, the secondary antibody of the ELISA plate was removed, and the plate was washed with 200 of PBS five times. 10 μl of H₂O₂ solution (Cat. No. H1009-100ML, Sigma, USA), 10 ml of PC buffer (5.1 g of citric acid monohydrate, 7.3 g of sodium phosphate/L (pH 5.0)), and one tablet of OPD (Cat. No. P8787-100TAB, Sigma, USA) were mixed to prepare a mixture, and a total volume of 100 μl of the mixture was added to each well. Incubation was performed at room temperature in the dark for 10 minutes, followed by color development. Thereafter, 50 μl of a stop buffer was added to each well to terminate the color development. Absorbance at 490 nm was measured using an ELISA reader, and a dissociation constant KD value (M) was calculated from the measured absorbance. […]

Test [2] concerns the target T2, mouse LRP6 (mLRP6) protein (Cat. No. 2960-LR-025, R&D, USA) (mouse, UniProt O88572 20-1370, limits assumed).
T2 construct: Coated on the ELISA plate
T2 sequence (looked up): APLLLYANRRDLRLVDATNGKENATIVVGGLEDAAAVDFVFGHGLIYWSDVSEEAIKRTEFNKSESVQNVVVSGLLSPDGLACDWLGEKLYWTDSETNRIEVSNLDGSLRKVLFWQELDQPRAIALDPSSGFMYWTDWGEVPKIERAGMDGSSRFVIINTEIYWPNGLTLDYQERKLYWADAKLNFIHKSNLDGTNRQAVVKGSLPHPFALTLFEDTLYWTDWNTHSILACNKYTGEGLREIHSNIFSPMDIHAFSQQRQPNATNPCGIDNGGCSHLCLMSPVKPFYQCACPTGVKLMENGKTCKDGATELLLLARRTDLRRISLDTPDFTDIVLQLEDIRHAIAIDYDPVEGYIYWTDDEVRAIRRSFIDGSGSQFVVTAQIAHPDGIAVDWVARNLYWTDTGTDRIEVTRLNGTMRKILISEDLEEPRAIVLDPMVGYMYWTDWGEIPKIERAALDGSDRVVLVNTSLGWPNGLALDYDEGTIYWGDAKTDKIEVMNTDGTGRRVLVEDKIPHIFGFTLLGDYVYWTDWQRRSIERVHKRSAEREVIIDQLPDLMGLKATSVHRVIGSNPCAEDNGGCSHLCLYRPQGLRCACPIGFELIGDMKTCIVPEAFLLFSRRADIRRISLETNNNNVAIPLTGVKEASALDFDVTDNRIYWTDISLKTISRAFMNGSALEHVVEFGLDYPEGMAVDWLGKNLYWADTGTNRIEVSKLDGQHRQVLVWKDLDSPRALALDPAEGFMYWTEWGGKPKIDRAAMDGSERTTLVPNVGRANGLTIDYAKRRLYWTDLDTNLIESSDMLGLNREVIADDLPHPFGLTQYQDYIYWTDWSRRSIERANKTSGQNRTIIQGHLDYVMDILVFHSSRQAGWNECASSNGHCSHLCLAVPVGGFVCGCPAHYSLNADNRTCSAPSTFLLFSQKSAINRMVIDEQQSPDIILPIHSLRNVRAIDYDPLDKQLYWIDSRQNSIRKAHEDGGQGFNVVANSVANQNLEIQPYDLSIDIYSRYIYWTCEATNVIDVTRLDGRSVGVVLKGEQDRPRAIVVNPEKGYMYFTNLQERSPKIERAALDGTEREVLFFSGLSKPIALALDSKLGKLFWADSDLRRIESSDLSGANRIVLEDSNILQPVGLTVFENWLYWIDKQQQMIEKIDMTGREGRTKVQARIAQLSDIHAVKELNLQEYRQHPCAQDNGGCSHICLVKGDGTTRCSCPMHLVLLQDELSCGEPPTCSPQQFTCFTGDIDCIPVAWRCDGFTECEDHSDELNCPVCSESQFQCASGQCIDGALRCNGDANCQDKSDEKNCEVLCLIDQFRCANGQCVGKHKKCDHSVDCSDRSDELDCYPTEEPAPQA
Briefly: ELISA, 100 ng mLRP6 coated, DKK2 protein diluted serially from 100 nM, KD calculated from absorbance at 490 nm. The procedure: as §1, §2

A word on the Kd: it is the free concentration of one partner at which half of the binding sites on the other are occupied at equilibrium, for simple one-to-one binding.

B1: wild-type DKK2 (Cat. No. 6628-DK-010, R&D, USA) (ligand)
chain: KLNSIKSSLGGETPGQAANRSAGMYQGLAFGGSKKGKNLGQAYPCSSDKECEVGRYCHSPHQGSSACMVCRRKKKRCHRDGMCCPSTRCNNGICIPVTESILTPHIPALDGTRHRDRNHGHYSNHDLGWQNLGRPHTKMSHIKGHEGDPCLRSSDCIEGFCCARHFWTKICKPVLHQGEVCTKQRKKGSHGLEIFQRCDCAKGLSCKVWKDATYSSKARLHVCQKI
notes: Bought protein; also called wild-type DKK2 protein
Regarding B1, the results for the Kd in test [1] and in test [2] were 90 nM and 270 nM, respectively.

The values above are taken from patent US20180016313A1 (MEDPACTO, published 2018).
